In the test the test system is HDAC1 binding to H4K5,12diac. Put plainly: In vitro competition with HDAC1 for immobilized H4K5,12diac peptides (direct binding pull down). The following applies: full length ATAD2 0.22 μM pre-incubated 2 h, then 0.1 μM HDAC1 2 h; 1 μM peptide. Here is the method: H4 peptides (1-25) conjugated with Biotin was immobilized on Streptavidin-coupled Dynabeads for 2 hours at 4 °C and incubated with nuclear extract from MCF7 cells. Nuclear extract was prepared by first isolating nucleus in hypotonic buffer (10 mM Tris-HCl pH 8.5, 10 mM NaCl, 0.5 mM TCEP and 0.1 % NP-40) and disrupting nuclear envelop in high salt buffer (20 mM Tris-HCl pH 8.5, 420 mM NaCl, 0.5 mM TCEP, 0.1 % Triton X-100, 25 % Glycerol) for 2 hours at 4 °C. Soluble nuclear extract was harvested by centrifugation at 20000 g for 20 min and diluted to 1:3 in buffer without NaCl in order to achieve physiological salt concentration, 140 mM. The nuclear extract was incubated with the immobilized peptides on the Streptavidin-Dynabeads overnight at 4 °C. Next day, the beads were washed three times with washing buffer (20 mM Tris-HCl pH 8.5, 140 mM NaCl, 0.5 mM TCEP, 0.1 % Triton X-100, 25 % Glycerol) and twice with high salt buffer. Bound proteins were recovered by boiling the beads in 1X sample buffer for 5 min. at 95 °C and analyzed by SDS-PAGE and Western Blotting. For direct binding experiments 1 μM of immobilized histone peptides on Streptavidin-Dynabeads were incubated with indicated amounts of ligands for 2 hours at 4 °C. After stringent washing as described above, bound proteins were analyzed in Western Blotting.

Changes are numbered by the printed parent chain. Numbers in names are those of the source.

B1: WT ATAD2: recombinant FLAG-tagged full length ATAD2 purified from HEK 293 cells (protein)
chain: MVVLRSSLELHNHSAASATGSLDLSSDFLSLEHIGRRRLRSAGAAQKKPAATTAKAGDGSSVKEVETYHRTRALRSLRKDAQNSSDSSFEKNVEITEQLANGRHFTRQLARQQADKKKEEHREDKVIPVTRSLRARNIVQSTEHLHEDNGDVEVRRSCRIRSRYSGVNQSMLFDKLITNTAEAVLQKMDDMKKMRRQRMRELEDLGVFNETEESNLNMYTRGKQKDIQRTDEETTDNQEGSVESSEEGEDQEHEDDGEDEDDEDDDDDDDDDDDDDDEDDEDEEDGEEENQKRYYLRQRKATVYYQAPLEKPRHQRKPNIFYSGPASPARPRYRLSSAGPRSPYCKRMNRRRHAIHSSDSTSSSSSEDEQHFERRRKRSRNRAINRCLPLNFRKDELKGIYKDRMKIGASLADVDPMQLDSSVRFDSVGGLSNHIAALKEMVVFPLLYPEVFEKFKIQPPRGCLFYGPPGTGKTLVARALANECSQGDKRVAFFMRKGADCLSKWVGESERQLRLLFDQAYQMRPSIIFFDEIDGLAPVRSSRQDQIHSSIVSTLLALMDGLDSRGEIVVIGATNRLDSIDPALRRPGRFDREFLFSLPDKEARKEILKIHTRDWNPKPLDTFLEELAENCVGYCGADIKSICAEAALCALRRRYPQIYTTSEKLQLDLSSINISAKDFEVAMQKMIPASQRAVTSPGQALSTVVKPLLQNTVDKILEALQRVFPHAEFRTNKTLDSDISCPLLESDLAYSDDDVPSVYENGLSQKSSHKAKDNFNFLHLNRNACYQPMSFRPRILIVGEPGFGQGSHLAPAVIHALEKFTVYTLDIPVLFGVSTTSPEETCAQVIREAKRTAPSIVYVPHIHVWWEIVGPTLKATFTTLLQNIPSFAPVLLLATSDKPHSALPEEVQELFIRDYGEIFNVQLPDKEERTKFFEDLILKQAAKPPISKKKAVLQALEVLPVAPPPEPRSLTAEEVKRLEEQEEDTFRELRIFLRNVTHRLAIDKRFRVFTKPVDPDEVPDYVTVIKQPMDLSSVISKIDLHKYLTVKDYLRDIDLICSNALEYNPDRDPGDRLIRHRACALRDTAYAIIKEELDEDFEQLCEEIQESRKKRGCSSSKYAPSYYHVMPKQNSTLVGDKRSDPEQNEKLKTPSTPVACSTPAQLKRKIRKKSNWYLGTIKKRRKISQAKDDSQNAIDHKIESDTEETQDTSVDHNETGNTGESSVEENEKQQNASESKLELRNNSNTCNIENELEDSRKTTACTELRDKIACNGDASSSQIIHISDENEGKEMCVLRMTRARRSQVEQQQLITVEKALAILSQPTPSLVVDHERLKNLLKTVVKKSQNYNIFQLENLYAVISQCIYRHRKDHDKTSLIQKMEQEVENFSCSR
modifications: left off: tagGFP, end not stated, kept
notes: recombinant FLAG-tagged full length ATAD2 purified from HEK 293 cells
Take B1: the “competition with HDAC1 for interaction with H4K5,12diac” value was “competes”.

B2: ATPase mutant ATAD2: recombinant full length ATPase inactive mutant ATAD2 (K473T and E532Q) (protein)
chain: B1 chain with K473T, E532Q
modifications: left off: tagGFP, end not stated, kept
As to B2, the “competition with HDAC1 for interaction with H4K5,12diac” value is given as “not”.

Source of the values: PMC5342555, “ATAD2 is an epigenetic reader of newly synthesized histone marks during DNA replication” (Oncotarget, 2016).
